Source: US20200123260A1 (Pfizer, published 2020)

What was measured:
[1] = molecular target: T1, Mouse TrkB ectodomain protein (R&D #1494-TB/CF) (mouse, UniProt P15209 32-429); assay: SPR (Biacore), TrkB ectodomain immobilised on CM5, antibody injected
T1 construct: extracellular domain; Bought protein; also called mouse TrkB-extracellular domain protein

[2] = molecular target: T2, rhTrkB-ECD (R&D #397-TR/CF) (human, UniProt Q16620 32-430); assay: as above
T2 construct: extracellular domain; Bought protein; also called human TrkB-extracellular domain protein; human TrkB ectodomain protein

[3] = molecular target: T2, rhTrkB-ECD (R&D #397-TR/CF); assay: competition ELISA on coated rhTrkB-ECD; competitor biotinylated chimeric TOA-1 at 25 ng/ml
[4] = molecular target: hTrkB-a isoform fused to a small peptide epitope, in U2OS cells (Discoverx Pathhunter) (human, UniProt Q16620 32-822); assay: cell-based or functional assay
[5] = molecular target: hTrkC in the SHC1 recruitment assay (U2OS, Discoverx Pathhunter) (human, UniProt Q16288 32-839); assay: cell-based or functional assay
[6] = molecular target: human TrkB (open reading frame from nm_006180) on HEK293 cells (human, UniProt Q16620 32-822); assay: cell-based or functional assay
[7] = molecular target: T2, rhTrkB-ECD (R&D #397-TR/CF); assay: competition ELISA: plate coated with rhTrkB-ECD; biotinylated chimeric TOA-1 at 25 ng/ml mixed with the unlabeled antibody; streptavidin-HRP

T2 sequence (Q16620 32-430): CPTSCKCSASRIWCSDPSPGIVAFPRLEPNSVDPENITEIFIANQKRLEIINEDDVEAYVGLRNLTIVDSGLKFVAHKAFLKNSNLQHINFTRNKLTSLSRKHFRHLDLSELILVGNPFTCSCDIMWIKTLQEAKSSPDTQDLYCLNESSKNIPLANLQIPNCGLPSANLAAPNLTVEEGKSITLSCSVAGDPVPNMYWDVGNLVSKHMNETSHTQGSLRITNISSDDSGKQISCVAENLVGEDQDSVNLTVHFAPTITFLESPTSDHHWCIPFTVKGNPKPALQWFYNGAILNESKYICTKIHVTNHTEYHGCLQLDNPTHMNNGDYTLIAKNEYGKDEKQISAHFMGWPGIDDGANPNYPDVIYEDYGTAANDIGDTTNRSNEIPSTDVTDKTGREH
T1 sequence (P15209 32-429): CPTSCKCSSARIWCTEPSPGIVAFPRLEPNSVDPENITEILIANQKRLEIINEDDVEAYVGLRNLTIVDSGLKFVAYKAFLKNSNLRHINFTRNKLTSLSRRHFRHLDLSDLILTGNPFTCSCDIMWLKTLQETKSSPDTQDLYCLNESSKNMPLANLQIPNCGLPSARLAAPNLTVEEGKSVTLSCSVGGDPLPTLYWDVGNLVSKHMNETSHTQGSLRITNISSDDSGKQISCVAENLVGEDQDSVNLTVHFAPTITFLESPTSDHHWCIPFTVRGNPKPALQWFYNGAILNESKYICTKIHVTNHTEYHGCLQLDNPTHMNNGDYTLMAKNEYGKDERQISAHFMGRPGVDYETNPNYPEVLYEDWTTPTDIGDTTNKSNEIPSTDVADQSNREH
hTrkC in the SHC1 recruitment assay (U2OS, Discoverx Pathhunter), sequence (Q16288 32-839): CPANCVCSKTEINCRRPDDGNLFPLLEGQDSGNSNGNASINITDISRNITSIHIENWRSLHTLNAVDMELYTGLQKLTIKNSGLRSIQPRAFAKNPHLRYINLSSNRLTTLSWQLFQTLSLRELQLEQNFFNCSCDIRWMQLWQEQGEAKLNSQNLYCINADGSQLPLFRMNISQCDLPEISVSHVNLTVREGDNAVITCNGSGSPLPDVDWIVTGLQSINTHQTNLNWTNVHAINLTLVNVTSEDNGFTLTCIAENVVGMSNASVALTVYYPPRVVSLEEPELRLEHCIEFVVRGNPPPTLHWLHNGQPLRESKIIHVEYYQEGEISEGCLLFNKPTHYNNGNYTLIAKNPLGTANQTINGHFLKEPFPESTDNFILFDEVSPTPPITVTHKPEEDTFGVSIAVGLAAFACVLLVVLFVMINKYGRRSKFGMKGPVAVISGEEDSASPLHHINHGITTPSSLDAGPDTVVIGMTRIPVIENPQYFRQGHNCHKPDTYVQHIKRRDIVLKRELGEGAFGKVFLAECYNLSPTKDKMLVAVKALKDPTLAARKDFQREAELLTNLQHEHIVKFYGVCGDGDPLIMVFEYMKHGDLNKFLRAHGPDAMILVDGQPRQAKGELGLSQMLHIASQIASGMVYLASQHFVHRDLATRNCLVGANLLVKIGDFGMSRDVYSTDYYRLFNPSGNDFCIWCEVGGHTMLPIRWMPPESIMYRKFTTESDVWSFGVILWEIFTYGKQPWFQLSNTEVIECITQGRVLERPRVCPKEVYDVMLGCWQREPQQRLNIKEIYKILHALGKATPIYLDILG
hTrkB-a isoform fused to a small peptide epitope, in U2OS cells (Discoverx Pathhunter), sequence (Q16620 32-430): as the sequence (Q16620 32-430) above
human TrkB (open reading frame from nm_006180) on HEK293 cells, sequence (Q16620 32-822): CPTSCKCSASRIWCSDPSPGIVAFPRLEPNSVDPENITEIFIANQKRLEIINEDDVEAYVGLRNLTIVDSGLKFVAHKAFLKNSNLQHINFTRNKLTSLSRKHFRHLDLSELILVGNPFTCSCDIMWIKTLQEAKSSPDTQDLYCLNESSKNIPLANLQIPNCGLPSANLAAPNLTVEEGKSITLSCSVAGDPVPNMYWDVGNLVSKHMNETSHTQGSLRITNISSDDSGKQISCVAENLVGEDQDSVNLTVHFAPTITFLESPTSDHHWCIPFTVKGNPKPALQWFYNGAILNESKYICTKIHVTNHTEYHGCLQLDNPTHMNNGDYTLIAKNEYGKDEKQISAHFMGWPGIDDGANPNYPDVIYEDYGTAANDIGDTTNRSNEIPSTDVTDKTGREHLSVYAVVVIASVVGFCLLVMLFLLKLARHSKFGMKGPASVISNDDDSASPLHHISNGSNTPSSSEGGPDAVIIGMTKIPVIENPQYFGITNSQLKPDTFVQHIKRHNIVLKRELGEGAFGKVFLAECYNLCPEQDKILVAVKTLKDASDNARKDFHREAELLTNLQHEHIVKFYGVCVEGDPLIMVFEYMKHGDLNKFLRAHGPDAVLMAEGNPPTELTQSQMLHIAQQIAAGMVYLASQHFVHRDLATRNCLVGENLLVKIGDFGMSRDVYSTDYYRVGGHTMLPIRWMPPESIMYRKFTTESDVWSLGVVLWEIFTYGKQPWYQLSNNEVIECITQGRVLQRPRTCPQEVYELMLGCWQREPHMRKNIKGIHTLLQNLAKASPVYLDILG

Row | Binder | IC50 [3] | also measured
1 | chimeric TOA-1 antibody (antibody, V domains shown, also called chiTOA-1; VH mouse / VL mouse) VH: EVQLQQSGPELVKPGASMKISCKTSGYSFTAYFMNWVKQSHGKSLEWIGRINPNNGDTFYTQKFKGKATLTVDKSSNTAHMELLSLTSEDSAIYYCGRRDYFGAMDYWGQGTSVTVSS VL: AIVLIQSPATLSVTPGDSVSLSCRASQTISNNLHWYQQKSHESPRLLIKSASLAISGIPSRFSGSGSGTDFTLSISSVETEDFGMYFCQQSNSWPNTFGGGTKLEIK | 3.6 nM | Kd [1]: 17 nM; Kd [2]: 12.1 nM
2 | BDNF (R&D systems, cat #248-BD) (ligand, human, UniProt P23560 129-247, looked up) HSDPARRGELSVCDSISEWVTAADKKTAVDMSGGTVTVLEKVPVSKGQLKQYFYETKCNPMGYTKEGCRGIDKRHWNSQCRTTQSYVRALTMDSKKRIGWRFIRIDTSCVCTLTIKRGR |  | EC50, SHC1 recruitment assay [4]: 1.02 nM; EC50, SHC1 recruitment assay [5]: 5.45 nM; Cre-luciferase reporter, EC50 (FIG. 38) [6]: 5.2 nM
3 | TOA-1 variant VH human v2.0 / VL human v2.0 (antibody, V domains shown, Human IgG; constant regions not restated; also called hu v2.0 / hu v2.0) VH: EVQLVQSGAEVKKPGATVKISCKVSGYSFTAYFMNWVQQAPGKGLEWMGRINPNNGDTFYTQKFKGRVTITADTSTDTAYMELSSLRSEDTAVYYCATRDYFGAMDYWGQGTLVTVSS VL: EIVMTQSPATLSVSPGERATLSCRASQTISNNLHWYQQKPGQAPRLLIYSASLAISGIPARFSGSGSGTEFTLTISSLQSEDFAVYYCQQSNSWPNTFGGGTKVEIK | ~37.8 nM | 
4 | TOA-1 variant VH human v1.1 / VL human v1.0 (antibody, V domains shown, Human IgG; constant regions not restated; also called hu v1.1 / hu v1.0) VH: EVQLVESGGGLVQPGGSLRLSCATSGYSFTAYFMNWVRQAPGKGLEWVARINPNNGDTFYTQKFKGRFTISVDNAKNSAYLQMNSLRAEDTAVYYCARRDYFGAMDYWGQGTLVTVSS VL: DIQMTQSPSSLSASVGDRVTITCRASQTISNNLHWYQQKPGKAPKLLIYSASLAISGVPSRFSGSGSGTDFTLTISSLQPEDFATYYCQQSNSWPNTFGGGTKVEIK | 13.6 nM | 
5 | TOA-1 variant VH mouse / VL human v1.0 (antibody, V domains shown, Human IgG from COS-1 conditioned medium; constant regions not restated; also called mu / hu v1.0) VH: EVQLQQSGPELVKPGASMKISCKTSGYSFTAYFMNWVKQSHGKSLEWIGRINPNNGDTFYTQKFKGKATLTVDKSSNTAHMELLSLTSEDSAIYYCGRRDYFGAMDYWGQGTSVTVSS VL: DIQMTQSPSSLSASVGDRVTITCRASQTISNNLHWYQQKPGKAPKLLIYSASLAISGVPSRFSGSGSGTDFTLTISSLQPEDFATYYCQQSNSWPNTFGGGTKVEIK | 16.3 nM | 
6 | huTOA-1 v1.0/2.0 (antibody, V domains shown, Human IgG; constant regions not restated; also called VH human v1.0 / VL human v2.0) VH: EVQLVESGGGLVQPGGSLRLSCAASGYSFTAYFMNWVRQAPGKGLEWVARINPNNGDTFYTQKFKGRFTISRDNAKNSLYLQMNSLRAEDTAVYYCARRDYFGAMDYWGQGTLVTVSS VL: EIVMTQSPATLSVSPGERATLSCRASQTISNNLHWYQQKPGQAPRLLIYSASLAISGIPARFSGSGSGTEFTLTISSLQSEDFAVYYCQQSNSWPNTFGGGTKVEIK | 5.9 nM | Kd [1]: 20.9 nM; Kd [2]: 16.5 nM
7 | TOA-1 variant VH human v2.0 / VL human v1.0 (antibody, V domains shown, Human IgG; constant regions not restated; also called hu v2.0 / hu v1.0) VH: EVQLVQSGAEVKKPGATVKISCKVSGYSFTAYFMNWVQQAPGKGLEWMGRINPNNGDTFYTQKFKGRVTITADTSTDTAYMELSSLRSEDTAVYYCATRDYFGAMDYWGQGTLVTVSS VL: DIQMTQSPSSLSASVGDRVTITCRASQTISNNLHWYQQKPGKAPKLLIYSASLAISGVPSRFSGSGSGTDFTLTISSLQPEDFATYYCQQSNSWPNTFGGGTKVEIK | ~126 nM | 
8 | huTOA-1 VH v1.0 / VL v1.3 (antibody, V domains shown, Human IgG; constant regions not restated; also called hu v1.0 / hu v1.3) VH: EVQLVESGGGLVQPGGSLRLSCAASGYSFTAYFMNWVRQAPGKGLEWVARINPNNGDTFYTQKFKGRFTISRDNAKNSLYLQMNSLRAEDTAVYYCARRDYFGAMDYWGQGTLVTVSS VL: DIQMTQSPSSLSASVGDRVTITCRASQTISNNLHWYQQKPGKSPKLLIYSASLAISGVPSRFSGSGSGTDFTLTISSLQPEDFATYYCQQSNSWPNTFGGGTKVEIK |  | IC50 (read off the curve) [7]: ~9 nM
9 | TOA-1 variant VH human v1.1 / VL human v1.1 (antibody, V domains shown, Human IgG; constant regions not restated; also called hu v1.1 / hu v1.1) VH: EVQLVESGGGLVQPGGSLRLSCATSGYSFTAYFMNWVRQAPGKGLEWVARINPNNGDTFYTQKFKGRFTISVDNAKNSAYLQMNSLRAEDTAVYYCARRDYFGAMDYWGQGTLVTVSS VL: DIQMTQSPSSLSASVGDRVTITCRASQTISNNLHWYQQKPGESPKLLIKSASLAISGVPSRFSGSGSGTDFTLTISSLQPEDFATYYCQQSNSWPNTFGGGTKVEIK | 10.1 nM | 
10 | TOA-1 variant VH mouse / VL human v1.1 (antibody, V domains shown, Human IgG from COS-1 conditioned medium; constant regions not restated; also called mu / hu v1.1) VH: EVQLQQSGPELVKPGASMKISCKTSGYSFTAYFMNWVKQSHGKSLEWIGRINPNNGDTFYTQKFKGKATLTVDKSSNTAHMELLSLTSEDSAIYYCGRRDYFGAMDYWGQGTSVTVSS VL: DIQMTQSPSSLSASVGDRVTITCRASQTISNNLHWYQQKPGESPKLLIKSASLAISGVPSRFSGSGSGTDFTLTISSLQPEDFATYYCQQSNSWPNTFGGGTKVEIK | 13.6 nM | 
11 | TOA-1 variant VH human v1.1 / VL human v2.0 (antibody, V domains shown, Human IgG; constant regions not restated; also called hu v1.1 / hu v2.0) VH: EVQLVESGGGLVQPGGSLRLSCATSGYSFTAYFMNWVRQAPGKGLEWVARINPNNGDTFYTQKFKGRFTISVDNAKNSAYLQMNSLRAEDTAVYYCARRDYFGAMDYWGQGTLVTVSS VL: EIVMTQSPATLSVSPGERATLSCRASQTISNNLHWYQQKPGQAPRLLIYSASLAISGIPARFSGSGSGTEFTLTISSLQSEDFAVYYCQQSNSWPNTFGGGTKVEIK | 10.7 nM | 
12 | TOA-1 variant VH human v2.0 / VL human v1.1 (antibody, V domains shown, Human IgG; constant regions not restated; also called hu v2.0 / hu v1.1) VH: EVQLVQSGAEVKKPGATVKISCKVSGYSFTAYFMNWVQQAPGKGLEWMGRINPNNGDTFYTQKFKGRVTITADTSTDTAYMELSSLRSEDTAVYYCATRDYFGAMDYWGQGTLVTVSS VL: DIQMTQSPSSLSASVGDRVTITCRASQTISNNLHWYQQKPGESPKLLIKSASLAISGVPSRFSGSGSGTDFTLTISSLQPEDFATYYCQQSNSWPNTFGGGTKVEIK | ~87.6 nM | 
13 | huTOA-1 VH v1.0 / VL v1.2 (antibody, V domains shown, Human IgG; constant regions not restated; also called hu v1.0 / hu v1.2) VH: EVQLVESGGGLVQPGGSLRLSCAASGYSFTAYFMNWVRQAPGKGLEWVARINPNNGDTFYTQKFKGRFTISRDNAKNSLYLQMNSLRAEDTAVYYCARRDYFGAMDYWGQGTLVTVSS VL: DIQMTQSPSSLSASVGDRVTITCRASQTISNNLHWYQQKPGEAPKLLIYSASLAISGVPSRFSGSGSGTDFTLTISSLQPEDFATYYCQQSNSWPNTFGGGTKVEIK |  | IC50 (read off the curve) [7]: ~9 nM
